# According to the supplement of paper PMC9170038:
# Tested on: MS2 coat protein
# Test: apparent KD of MS2 coat protein; designed switch direction (-1 OFF switch, 1 ON switch): 1; higher = weaker reporter binding
# Method in brief: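 The reported apparent KD is a per-design median over clusters, from curve fits of normalised cluster fluorescence. Protein titrations used SNAP-549-labelled MS2 coat protein, doubled from 0.7 or 1.5 nM to 3 µM, in Tris-HCl pH 7.5 buffer with KCl, MgCl2, BSA, DTT, tRNA and Tween-20, with no input, 200 uM small-molecule ligand, or an oligonucleotide input. The RNA switches were transcribed on Illumina chips by stalled E. coli RNA polymerase.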
# [1] = input ligand: microRNA oligo, concentration not stated
# [2] = Eterna round: R95, input ligand: FMN 200 uM
# [3] = Eterna round: R95, input ligand: microRNA oligo, concentration not stated
# [4] = Eterna round: R95, input ligand: none
sequence,measurement,setting,value
"GUUACAUGAGGAUCACCCAUGUAUGUGUGGGAGUAAGUGUCUUAGGAUAUCUAUGAUUUAAUUUCAGAGAAGGAAGAUUGUUGU [JMF's solution 88] (Eterna round: R96, puzzle: Same State NG 3)",apparent KD of MS2 coat protein,input ligand: FMN 200 uM,119 nM
same,apparent KD of MS2 coat protein,[1],68 nM
same,apparent KD of MS2 coat protein,input ligand: none,109 nM
"GUUACAUGAGGAUCACCCAUGUAUGUGUGGGAGUAAGUGUCUUAGGAUAUCUGUUAUUUAAUUUGAGAGAAGGAAGAUUGUUGU [JMF's solution 47] (Eterna round: R96, puzzle: Same State NG 3)",apparent KD of MS2 coat protein,input ligand: FMN 200 uM,134 nM
same,apparent KD of MS2 coat protein,[1],71.7 nM
same,apparent KD of MS2 coat protein,input ligand: none,89.1 nM
"GUUACAUGAGGAUCACCCAUGUAUGUGUGGGAGUAAGUGUCUUAGGAUAUCUGUUAUUUGAUUUAAGAGAAGGAAGAUUGUUGU [JMF's solution 40] (Eterna round: R96, puzzle: Same State NG 3)",apparent KD of MS2 coat protein,input ligand: FMN 200 uM,123 nM
same,apparent KD of MS2 coat protein,[1],78.4 nM
same,apparent KD of MS2 coat protein,input ligand: none,92.8 nM
GUUAUACAUGAGGAUCACCCAUGUCAAUGUAGUCGAGGAUAUGGGCAGCUAUGAGGCGUACUAGAAGGCGAGGAGU [JL-ss1-3.15 ViennaUCT mod] (puzzle: Same State 1),apparent KD of MS2 coat protein,[2],90.7 nM
same,apparent KD of MS2 coat protein,[3],90.5 nM
same,apparent KD of MS2 coat protein,[4],134 nM
"UAAAAGAAGUUAGGAUAUGGUGAAGUACUGUGGCCAGAAGGGACGACUAACCGAGAAAGACAUGAGGAUCACCCAUGUCCACAG [Eternabot solution 20] (Eterna round: R96, puzzle: Same State NG 1)",apparent KD of MS2 coat protein,input ligand: FMN 200 uM,86.5 nM
same,apparent KD of MS2 coat protein,[1],57 nM
same,apparent KD of MS2 coat protein,input ligand: none,74.5 nM
"UAAAUAAUGAUAGGAUAUACAUGAGGAAUCCUCGUAGAAGGAUCAUGACAUGAGGAUCACCCAUGUAACGCUCGAAAGAGCGUA [Mat - Same State NG 1 - JL mod - D44] (Eterna round: R96, puzzle: Same State NG 1)",apparent KD of MS2 coat protein,input ligand: FMN 200 uM,485 nM
same,apparent KD of MS2 coat protein,[1],265 nM
same,apparent KD of MS2 coat protein,input ligand: none,219 nM
"UAAGGACAUGAGGAUCACCCAUGUGCUUCAUAUGGAGAAACUCAGGAUAUGCUGAGGAUCACCCAGCAGAAGGGAGAUCCGAGG (Eterna round: R96, puzzle: Same State NG 3)",apparent KD of MS2 coat protein,input ligand: FMN 200 uM,206 nM
same,apparent KD of MS2 coat protein,[1],279 nM
same,apparent KD of MS2 coat protein,input ligand: none,281 nM
"UACAAUCUAUCUGAGGAUAUCAUGAAAAAAACAUGAGGAUCACCCAUGUGCAGGAAAACUGCAUAUGAGAAGGCAGAUAGAUUGG [salish99_SS2_r3_007] (Eterna round: R96, puzzle: Same State 2)",apparent KD of MS2 coat protein,[1],505 nM
UACAAUCUAUCUGAGGAUAUCAUGAAAAAAACAUGAGGAUCACCCAUGUGCAGGAAAACUGCAUAUGAGAAGGCAGAUAGAUUGG [salish99_SS2_r3_007] (puzzle: Same State 2),apparent KD of MS2 coat protein,[2],14.3 nM
same,apparent KD of MS2 coat protein,[3],3390 nM
same,apparent KD of MS2 coat protein,[4],11700 nM
"UACAUACGCGGAGGAUAUGGGCGAGGCACGGAGGUCCGCGCCAAAACAUGAGGAUCACCCAUGUCCCAGAAGGCCGCACAAACU [Oreslaed] (Eterna round: R96, puzzle: Same State NG 2)",apparent KD of MS2 coat protein,input ligand: FMN 200 uM,13.8 nM
same,apparent KD of MS2 coat protein,[1],54.4 nM
same,apparent KD of MS2 coat protein,input ligand: none,83.1 nM
UACCAUAGUAUAUUGGUGCAAGCUUUUUGACAUGAGGAUCACCCAUGUACUCGUCUUAUGUGCAGUCCGUAGACUGC [JL-shm-2.22 Brourd mod] (puzzle: Sensor for hsa-mir-208a),apparent KD of MS2 coat protein,[2],57.8 nM
same,apparent KD of MS2 coat protein,[3],13 nM
same,apparent KD of MS2 coat protein,[4],54.6 nM
"UACUUAGUGGUAGGAUAUGUAGGAUAUGGCGAGAGCUAAGCUUGGAAGUCACUUCAGCCAGAAGGACAGAAGGACCACUCUCUC [pwkr ssNG2 2FMN + F9.12] (Eterna round: R96, puzzle: Same State NG 2)",apparent KD of MS2 coat protein,input ligand: FMN 200 uM,98 nM
same,apparent KD of MS2 coat protein,[1],17.4 nM
same,apparent KD of MS2 coat protein,input ligand: none,97.1 nM
UAGAGAGGAAGCGAGGAUAUCGUGUGAGGUACAUGAGGAUCACCCAUGUUUGAUGUUGAGAGAGGCGAGAAGGCGCAGGAGAUUA [JR_SS2_Sub084] (puzzle: Same State 2),apparent KD of MS2 coat protein,[2],34.1 nM
same,apparent KD of MS2 coat protein,[3],26.6 nM
same,apparent KD of MS2 coat protein,[4],35.6 nM
UAGAGAGGAAGCGAGGAUAUCGUGUUAGGUACAUGAGGAUCACCCAUGUUUUAGGUAGAGGUAGGCGAGAAGGCGCAGGAGAAGA [JR_SS2_Sub090] (puzzle: Same State 2),apparent KD of MS2 coat protein,[2],25.8 nM
same,apparent KD of MS2 coat protein,[3],32.9 nM
same,apparent KD of MS2 coat protein,[4],34 nM
"UAGCGCUGUCGAGAGGAUAUGCGGUGAUGGACAUGAGGAUCACCCAUGUUAGCGAUAGCAUUACGGUAGAAGGCUCUACAGCUGU [salish99_ss2_r3_093] (Eterna round: R96, puzzle: Same State 2)",apparent KD of MS2 coat protein,input ligand: FMN 200 uM,38.2 nM
same,apparent KD of MS2 coat protein,[1],342 nM
same,apparent KD of MS2 coat protein,input ligand: none,694 nM
UAGCGCUGUCGAGAGGAUAUGCGGUGAUGGACAUGAGGAUCACCCAUGUUAGCGAUAGCAUUACGGUAGAAGGCUCUACAGCUGU [salish99_ss2_r3_093] (puzzle: Same State 2),apparent KD of MS2 coat protein,[3],177 nM
"UAGGAUCAACGAGGAUAUAAUAGGUUCUAUUCGUGAUAUUGCGUACAUGAGGAUCACCCAUGUUAUUAGAAGGCGUAUGGGUUU [JR_SSNG2_Sub085] (Eterna round: R96, puzzle: Same State NG 2)",apparent KD of MS2 coat protein,input ligand: FMN 200 uM,78.7 nM
same,apparent KD of MS2 coat protein,[1],69.9 nM
same,apparent KD of MS2 coat protein,input ligand: none,92.8 nM
"UAGUGCGUUAGAGGAUAUUCUAAAAUAAAAUAAAAGACAUGAGGAUCACCCAUGUAUGUACAUGGGAAGAAGGCUGAUGUGCUA [Omei SS(NG)2 Bv1] (Eterna round: R96, puzzle: Same State NG 2)",apparent KD of MS2 coat protein,[1],296 nM
"UAGUUGGUGGUAGGAUAUGUAGGAUAUGGCGAGAGCUAAGCUUGGAAGUCACUUCAGCCAGAAGGACAGAAGGACCAGUAGCUU [pwkr ssNG2 2FMN + F9.10] (Eterna round: R96, puzzle: Same State NG 2)",apparent KD of MS2 coat protein,input ligand: FMN 200 uM,105 nM
same,apparent KD of MS2 coat protein,[1],24.2 nM
same,apparent KD of MS2 coat protein,input ligand: none,79.1 nM
"UAUAUUAUGGUAGGAUAUCUAGGAUAUGGGAAGAGCUAAGCUUGGAAGUCACUUCACCCAGAAGGAGAGAAGGACCAUAAUAUU [pwkr ssNG2 2FMN + F9.5] (Eterna round: R96, puzzle: Same State NG 2)",apparent KD of MS2 coat protein,input ligand: FMN 200 uM,105 nM
same,apparent KD of MS2 coat protein,[1],240 nM
same,apparent KD of MS2 coat protein,input ligand: none,76.7 nM
"UAUCCAUAGAUAGGAUAUUAGUGAACAUGAGGAUCACCCAUGUUUUGCUUGGUUUUAAGUUAAUCUGAGAAGGAUCUUGAUGAA [SameState NG2 #5] (Eterna round: R96, puzzle: Same State NG 2)",apparent KD of MS2 coat protein,input ligand: FMN 200 uM,20.3 nM
same,apparent KD of MS2 coat protein,[1],14.6 nM
same,apparent KD of MS2 coat protein,input ligand: none,20.4 nM
"UAUCUCAUGUAAGGAUAUGCAGCCGUUUCGGCUGCAGAAGGUACUAUAAUACAUGAGGAUCACCCAUGUCUCUAUUAUUUAGUU [JL SSNG1 1.45] (Eterna round: R96, puzzle: Same State NG 1)",apparent KD of MS2 coat protein,input ligand: FMN 200 uM,57.6 nM
same,apparent KD of MS2 coat protein,[1],45.7 nM
same,apparent KD of MS2 coat protein,input ligand: none,63.8 nM
UAUGAACAUGAGGAUCACCCAUGUGGAAAGGACACAGGAUAUCAUCUCGCACGUGCGAUAUGAGAAGGGUGAUGGU [Quedorinri] (puzzle: Same State 1),apparent KD of MS2 coat protein,[3],96.3 nM
"UAUUUAAUCGUAGGAUAUAGAGUGAAAUUUGUACUAGAAGGACGUAACAUGAGGAUCACCCAUGUGGUAAGUGGGACAUAGUAU [JR_SSNG1_Sub037] (Eterna round: R96, puzzle: Same State NG 1)",apparent KD of MS2 coat protein,input ligand: FMN 200 uM,44.1 nM
same,apparent KD of MS2 coat protein,[1],27 nM
same,apparent KD of MS2 coat protein,input ligand: none,39.7 nM
UCAAGCGUUUGGCUCGUUUUAUGUGUUGAACAUGAGGAUCACCCAUGUAUUGUACGAUCCAGUUAGAUGGUAUUUUG [JR_SHM208A_Sub040] (puzzle: Sensor for hsa-mir-208a),apparent KD of MS2 coat protein,[2],46.9 nM
same,apparent KD of MS2 coat protein,[3],104 nM
same,apparent KD of MS2 coat protein,[4],67.6 nM
UCUUAUAAUAAUAUAAUUCAUUUGAUAAAACAUGAGGAUCACCCAUGUCCUACUUUUUUUAAUCAUUUUAACUUUAA [The 7 c's] (puzzle: Sensor for hsa-mir-208a),apparent KD of MS2 coat protein,[2],45.3 nM
same,apparent KD of MS2 coat protein,[3],62.6 nM
same,apparent KD of MS2 coat protein,[4],63.5 nM
UCUUGGUUUUUGCUCGUUUUUUGUGUUGAACAUGAGGAUCACCCAUGUAUUAUACGGUCCGGUUUAAUAAUAAUCCG [JMF 81] (puzzle: Sensor for hsa-mir-208a),apparent KD of MS2 coat protein,[2],24.2 nM
same,apparent KD of MS2 coat protein,[3],14.6 nM
same,apparent KD of MS2 coat protein,[4],27.3 nM
UCUUGGUUUUUGCUCGUUUUUUGUGUUGAACAUGAGGAUCACCCAUGUAUUAUACGGUCCGGUUUAGUAGUGGUCCG [JMF 79] (puzzle: Sensor for hsa-mir-208a),apparent KD of MS2 coat protein,[2],28.2 nM
same,apparent KD of MS2 coat protein,[3],16 nM
same,apparent KD of MS2 coat protein,[4],31.1 nM
